To fix the notation:
B1: azurin from Pseudomonas aeruginosa (other)
chain: AECSVDIQGNDQMQFNTNAITVDKSCKQFTVNLSHPGNLPKNVMGHNWVLSTAADMQGVVTDGMASGLDKDYLKPDDSRVIAHTKLIGSGEKDSVTFDVSKLKEGEQYMFFCTFPGHSALMKGTLTLK
notes: Recombinant cupredoxin (copper protein) expressed in E. coli JM109 from pUC19-paz; also called wt azurin; wt-azurin
B2: DC-SIGN (DC-specific intercellular adhesion molecule 3-grabbing nonintegrin) (receptor, UniProt Q9NNX6 62-404, looked up)
chain: KVPSSISQEQSRQDAIYQNLTQLKAAVGELSEKSKLQEIYQELTQLKAAVGELPEKSKLQEIYQELTRLKAAVGELPEKSKLQEIYQELTWLKAAVGELPEKSKMQEIYQELTRLKAAVGELPEKSKQQEIYQELTRLKAAVGELPEKSKQQEIYQELTRLKAAVGELPEKSKQQEIYQELTQLKAAVERLCHPCPWEWTFFQGNCYFMSNSQRNWHDSITACKEVGAQLVVIKSAEEQNFLQLQSSRSNRFTWMGLSDLNQEGTWQWVDGSPLLPSFKQYWNRGEPNNVGEEDCAEFSGNGWNDDKCNLAKFWICKKSAASCSRDEEQFLSPAPATPNPPPA
notes: Immobilised on a CM5 sensor chip
B3: Pf MSP1-19, C-terminal fragment of the P. falciparum merozoite surface protein MSP1 (other)
chain: NISQHQCVKKQCPENSGCFRHLDEREECKCLLNYKQEGDKCVENPNPTCNENNGGCDADATCTEEDSGSSRKKITCECTKPDSYPLFDGIFCS
notes: domain: MSP1-19; Immobilised on CM5 sensor chips
B5: Laz from Neisseria gonorrhoeae F62 (other)
chain: CSQEPAAPAAEATPAGEAPASEAPAAEAAPADAAEAPAAGNCAATVESNDNMQFNTKDIQVSKACKEFTITLKHTGTQPKASMGHNLVIAKAEDMDGVFKDGVGAADTDYVKPDDARVVAHTKLIGGGEESSLTLDPAKLADGDYKFACTFPGHGALMNGKVTLVD
notes: also called Neisserial Laz protein

One experiment has as its target ICAM-1 (UniProt P05362 28-480). Briefly: SPR, azurin immobilised on CM5. A general note: Surface plasmon resonance follows binding to a sensor surface in real time, without labels.
In the next experiment the target is T1, ICAM-2 (UniProt P13598 25-223).
T1 sequence: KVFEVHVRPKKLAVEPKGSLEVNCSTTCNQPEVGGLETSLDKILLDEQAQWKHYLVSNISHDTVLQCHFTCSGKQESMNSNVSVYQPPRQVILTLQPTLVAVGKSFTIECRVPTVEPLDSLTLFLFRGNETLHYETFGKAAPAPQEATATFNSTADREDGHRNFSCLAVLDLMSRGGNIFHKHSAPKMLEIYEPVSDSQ
Briefly: SPR, azurin immobilised on CM5.

The target of another experiment is HIV-1 gp41 (HIV-1, UniProt P04578 512-684). Description: SPR, azurin immobilised on CM5.
For another experiment, the target named is HIV-1 gag (HIV-1, UniProt P04591 1-500). Description: SPR, azurin immobilised on CM5 (target taken from the preceding sentence).
The next experiment addresses T2, HIV-1 nef (HIV-1, UniProt P04601 1-206).
T2 sequence: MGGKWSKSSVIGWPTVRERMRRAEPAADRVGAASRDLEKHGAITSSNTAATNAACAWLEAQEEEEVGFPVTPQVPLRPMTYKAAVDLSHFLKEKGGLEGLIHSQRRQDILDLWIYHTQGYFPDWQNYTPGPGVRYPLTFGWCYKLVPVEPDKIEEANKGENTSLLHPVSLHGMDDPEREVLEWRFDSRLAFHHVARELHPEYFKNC
Described as above.

The target in experiment [1] is T3, CD4 (UniProt P01730 26-396).
T3 construct: Bought protein; Used both immobilised on CM5 and as eluent
Briefly: SPR, azurin immobilised on CM5 (Az-CM5), 1 mg/ml CM5 in HBS-EP running buffer.

The target of experiment [2] is T3, CD4. Description: SPR, CD4 immobilised on CM5 (CD4-CM5), equilibrium response fitted to Req=Rmax/(1+(Kd/C)).
In experiment [3] the target is T4, ICAM-3 (UniProt P32942 30-485, limits assumed).
T4 sequence (looked up): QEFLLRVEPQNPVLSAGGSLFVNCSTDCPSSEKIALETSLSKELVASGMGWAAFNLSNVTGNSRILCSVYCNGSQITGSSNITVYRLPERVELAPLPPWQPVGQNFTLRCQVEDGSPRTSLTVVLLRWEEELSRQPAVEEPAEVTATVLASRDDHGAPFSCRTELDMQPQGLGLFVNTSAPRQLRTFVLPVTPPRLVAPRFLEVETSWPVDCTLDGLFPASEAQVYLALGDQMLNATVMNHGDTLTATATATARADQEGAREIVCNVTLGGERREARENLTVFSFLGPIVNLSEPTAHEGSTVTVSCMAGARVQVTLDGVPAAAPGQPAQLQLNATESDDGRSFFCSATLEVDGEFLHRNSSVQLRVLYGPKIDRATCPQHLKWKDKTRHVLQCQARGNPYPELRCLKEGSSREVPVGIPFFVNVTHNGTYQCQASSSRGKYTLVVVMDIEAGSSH
Description: SPR, azurin immobilised on CM5, 1 mg/ml CM5 (carboxymethyldextran) in HBS-EP running buffer.

A further experiment addresses T5, NCAM (UniProt P13591 20-718).
T5 construct: also called Neural Cell Adhesion Molecule
Described as above.

For experiment [4], the target named is T6, Pf MSP1-42, C-terminal fragment of the P. falciparum merozoite surface protein MSP1 (Plasmodium falciparum, UniProt Q8I0U8 1327-1699).
T6 construct: domain: MSP1-42; Immobilised on CM5 sensor chips
T6 sequence: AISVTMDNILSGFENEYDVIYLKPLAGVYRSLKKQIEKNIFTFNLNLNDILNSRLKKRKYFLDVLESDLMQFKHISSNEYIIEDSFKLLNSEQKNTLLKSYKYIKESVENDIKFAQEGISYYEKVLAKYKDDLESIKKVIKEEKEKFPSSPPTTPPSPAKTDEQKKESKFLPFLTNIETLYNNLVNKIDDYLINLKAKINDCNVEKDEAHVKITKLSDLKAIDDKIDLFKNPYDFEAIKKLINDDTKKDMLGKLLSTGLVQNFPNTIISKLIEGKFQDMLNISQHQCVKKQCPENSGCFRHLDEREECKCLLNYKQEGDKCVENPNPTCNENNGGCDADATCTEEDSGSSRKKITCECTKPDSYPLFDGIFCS
Briefly: SPR (Biacore X), MSP1-42 immobilised on CM5, equilibrium response fitted to Req=Rmax/(1+(Kd/C)).

Experiment [5] addresses B2. Briefly: SPR, DC-SIGN immobilised on CM5, proteins injected at 0-100 nM, equilibrium response fitted to Req=Rmax/(1+(Kd/C)).
Experiment [6] deals with T4, ICAM-3. The description is as above.
Experiment [7] has as its target T7, glutathione S-transferase (GST) (UniProt P08515 1-218 = GST).
T7 construct: Control protein in the SPR experiments
Briefly: SPR, MSP1-19 immobilised on CM5.

Experiment [8] addresses T8, GST-Azu 36-128 (GST fused in frame to azurin amino acids 36 to 128) (Pseudomonas aeruginosa, UniProt P08515 1-218 = GST).
T8 construct: Azurin fragment cloned into the BamHI and EcoRI sites of pGEX-5X
Briefly: SPR, MSP1-19 immobilised on CM5.

Experiment [9] deals with T9, GST-Azu 36-89 (GST fused in frame to azurin amino acids 36 to 89) (Pseudomonas aeruginosa, UniProt P08515 1-218 = GST).
T9 construct: also called pGST-azu 36-89 product
Description: SPR, MSP1-19 immobilised on CM5.

The target of experiment [10] is GST-Azu 88-113 (GST fused in frame to azurin amino acids 88 to 113) (Pseudomonas aeruginosa, UniProt P08515 1-218 = GST). Briefly: SPR, MSP1-19 immobilised on CM5, GST-Azu fusion series.
The target of experiment [11] is B1. Briefly: SPR (Biacore X), MSP1-19 immobilised on CM5, equilibrium response fitted to Req=Rmax/(1+(Kd/C)).
In experiment [12] the target is B5. Described as above.
For experiment [13], the target named is B3. Briefly: SPR, MSP1-19 immobilised on CM5.
Experiment [14] deals with B3. Briefly: SPR (Biacore X), MSP1-19 immobilised on CM5, equilibrium response fitted to Req=Rmax/(1+(Kd/C)).

Broadly, the Kd is a measure of binding affinity in units of concentration.

Sequence of ICAM-1 (P05362 28-480 limits assumed): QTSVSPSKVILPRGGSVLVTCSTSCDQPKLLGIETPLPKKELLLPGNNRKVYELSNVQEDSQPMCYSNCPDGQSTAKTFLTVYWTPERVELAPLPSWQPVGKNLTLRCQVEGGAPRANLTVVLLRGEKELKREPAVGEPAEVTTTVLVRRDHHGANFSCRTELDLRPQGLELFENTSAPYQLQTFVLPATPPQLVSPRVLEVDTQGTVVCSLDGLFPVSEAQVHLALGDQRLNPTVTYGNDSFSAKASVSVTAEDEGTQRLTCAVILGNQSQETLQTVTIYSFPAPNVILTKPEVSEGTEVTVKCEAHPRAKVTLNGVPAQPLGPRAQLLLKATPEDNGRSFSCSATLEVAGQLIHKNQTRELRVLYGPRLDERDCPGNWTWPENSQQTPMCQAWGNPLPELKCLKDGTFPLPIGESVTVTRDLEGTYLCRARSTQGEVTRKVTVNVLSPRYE
Sequence of GST-Azu 88-113 (GST fused in frame to azurin amino acids 88 to 113) (P08515 1-218, tags left off): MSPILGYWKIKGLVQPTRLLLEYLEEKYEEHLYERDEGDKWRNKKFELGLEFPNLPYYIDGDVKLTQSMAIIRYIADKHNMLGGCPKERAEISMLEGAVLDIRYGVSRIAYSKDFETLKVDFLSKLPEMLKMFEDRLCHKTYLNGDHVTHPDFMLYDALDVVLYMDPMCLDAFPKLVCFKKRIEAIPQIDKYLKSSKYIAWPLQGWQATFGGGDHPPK
T7 sequence (P08515 whole entry): as the sequence (P08515 1-218, tags left off) above
T9 sequence (P08515 1-218, tags or fused parts left off): as the sequence (P08515 1-218, tags left off) above

As to B1, the binding result with ICAM-1, in the experiment with ICAM-2, with HIV-1 gp41, with HIV-1 gag and with HIV-1 nef was “no binding” each time. The Kd was 25.1 nM with CD4 [1]; 36.9 nM with CD4 [2]; 19.5 nM in the experiment with ICAM-3 [3]; 20 nM with NCAM; 54.3 nM in experiment [4]; 0.83 nM in [5].
Turning to B2, the Kd with ICAM-3 [6] is 0.93 nM.
Take B3: the binding result in experiment [7] was “no binding (tested: 0.05-300 nM (FIG. 7 legend))”; in [10], “no binding”. In addition, the Kd in [8] stood at 24.5 nM; in experiment [9], 20.9 nM; in experiment [11], 32.2 nM; in experiment [12] it was 26.2 nM.

B4: H.8-GST (H.8 epitope fused in the N-terminal of GST) (other)
chain: CSQEPAAPAAEATPAGEAPASEAPAAEAAPADAAEAPAA
notes: not shown: glutathione S-transferase (GST) of the commercial pGEX-5X-3 / pET29a-gst vectors
B4: in [13], the binding result is listed as “no binding (tested: 0.05-300 nM (FIG. 7 legend))”.
With B5, binding in [4] was put at a Kd of 45.6 nM.

B6: H.8-azurin (H.8 epitope of Laz fused in frame to the N-terminal part of P. aeruginosa azurin) (other)
chain: CSQEPAAPAAEATPAGEAPASEAPAAEAAPADAAEAPAAAECSVDIQGNDQMQFNTNAITVDKSCKQFTVNLSHPGNLPKNVMGHNWVLSTAADMQGVVTDGMASGLDKDYLKPDDSRVIAHTKLIGSGEKDSVTFDVSKLKEGEQYMFFCTFPGHSALMKGTLTLK
notes: also called H.8-Paz; H.8-paz
B6: the Kd in [14] was found to be 11.8 nM; in experiment [4] it was 14.3 nM.

(Values after patent US20140287990A1 (published 2014).)
